Article PMC2200010

Assays:
[1] = target: Escherichia coli heat labile toxin B subunit, pentameric, recombinant (Escherichia coli) (UniProt P32890); assay: ELISA
[2] = target: cholera toxin B subunit, pentameric, recombinant (Vibrio cholerae) (UniProt P01556); assay: ELISA
Chain of UniProt P01556 (P01556 22-124): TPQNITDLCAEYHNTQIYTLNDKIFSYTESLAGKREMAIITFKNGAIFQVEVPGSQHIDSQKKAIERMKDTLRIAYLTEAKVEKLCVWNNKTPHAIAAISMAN

Chain of UniProt P32890 (P32890 22-124): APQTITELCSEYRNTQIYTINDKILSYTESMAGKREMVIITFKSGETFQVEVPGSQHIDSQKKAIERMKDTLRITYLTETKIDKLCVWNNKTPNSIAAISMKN

| Substance | stoichiometry N (A subunit per pentameric B subunit) [1] | stoichiometry N (A subunit per pentameric B subunit) [2] |
| --- | --- | --- |
| Escherichia coli heat labile toxin A subunit, recombinant wild type (from UniProt P06717 19-258) (natural protein) | 1 |  |
| cholera toxin A subunit, recombinant wild type (natural protein) |  | 1 |
